The Kd is the concentration at which binding is half-saturated. A higher Kd goes with weaker binding.

Experimental findings from US20140370037A1 (published 2014) are described below.

T1: human DLL3 antigen (human, UniProt Q9NYJ7 27-492, limits assumed)
T1 construct: also called immobilized human DLL3; recombinant human DLL3
T1 sequence (looked up): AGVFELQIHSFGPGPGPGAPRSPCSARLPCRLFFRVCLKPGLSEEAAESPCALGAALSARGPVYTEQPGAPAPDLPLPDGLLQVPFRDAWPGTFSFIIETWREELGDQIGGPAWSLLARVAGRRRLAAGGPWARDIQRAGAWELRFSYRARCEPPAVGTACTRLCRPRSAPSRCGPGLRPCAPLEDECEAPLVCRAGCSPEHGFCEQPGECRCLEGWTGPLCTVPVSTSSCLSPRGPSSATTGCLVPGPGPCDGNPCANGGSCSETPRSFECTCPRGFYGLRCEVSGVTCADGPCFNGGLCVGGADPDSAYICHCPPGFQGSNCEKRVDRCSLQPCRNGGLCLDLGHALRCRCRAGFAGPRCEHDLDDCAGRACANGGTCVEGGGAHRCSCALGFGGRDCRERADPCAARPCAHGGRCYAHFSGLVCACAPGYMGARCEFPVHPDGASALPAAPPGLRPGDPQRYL

B1: SC16.143 (antibody, V domains shown)
VH: QVQLQQSGPELVKPGASVRISCKASGYTFTSYYIHWVKQRPGQGLEWIGWIYPGNGNTKYNEKFKGKATLTADKSSSTAYMQISSLTSEDSAVYFCARERWLLLWFAYWGQGTLVTVSA
VL: DVLMTQTPLSLPVSLGDQASISCRSSQSIVHSNGNTYLEWYLQKPGQSPKLLIYKVSNRFSGVPDRFSGSGSGTDFTLKISRVEAEDLGVYYCFQGSHVPLTFGAGTKLELK
notes: murine mAb
B2: SC16.142 (antibody, V domains shown)
VH: EVQLQQSGPELVKPGASVKISCKASGYTFTDYNMHWVKQSHGKSLEWIGFFYPYNGNTVYSQKFKSKATLTVDNSSSTAYMELRSLTSEDSAVYYCARLNWEGYWGQGTTLTVSS
VL: DIKMTQSPSSMYASLGERVTITCKASQDINNYLSWFQQKPGKSPKTLIYRANRLVDGVPSRFSGSGSGQDYSLTISSLEYEDMGIYYCLQYDEFPYTFGGGTKLEIKR
notes: murine mAb
B3: SC16.140 (antibody, V domains shown)
VH: QVQLQQSGPELVRPGASVKMSCKASGYTFTSYWMHWVKQRPGQGLEWIGMIDPSNSETRLNQKFKDKATLNVDKSSNTAYMQLSSLTSEDSAVYYCAVMDYYFDYWGQGTTLTVSS
VL: DIVLTQSLASLAVSLGQRATISCRASKSVSTSGYSYMHWYQQKPGQPPKLLIYLASNLESGVPARFSGSGSGTDFTLNIHPVEDEDAATYYCQHSRELPFTFGGGTKLEIKR
notes: murine mAb
B4: SC16.144 (antibody, V domains shown)
VH: QIQLVQSGPELKKPGETVKISCKASGYTFTNYGMNWVKQAPGKGLKWVGWINTYTGEPTYADDFKGRFAFSLETSASTAYLQIDNLKNEDTATYFCARVGDYVGFDYWGQGTTLTVSS
VL: SIVMTQTPKFLLVSAGDRVTITCKASQSVSNDVGWYQQKPGQSPKLLIYYASNRYNGVPDRFTGSGYGTDFTFTISTVQAEDLAVYFCQQDYSSPWTFGGGTKLEIK
notes: murine mAb
B5: SC16.137 (antibody, V domains shown)
VH: EVQLVESGGDLVKPGGSLKLSCAASGFTFSSYGMSWVRQTPDKRLEWVATISSGGSYTYYPDSVKGRFTISRDNAKNTLYLQMSSLKSEDTAMYYCARRRADAMDYWGQGTSVTVSS
VL: QIVLTQSPAIMSASLGEEITLTCSASSSVSYMHWYQQKSGTSPKLLIYSTSNLASGVPSRFSGSGSGTFYSLTISSVEAEDAADYYCHQWSSYHTFGGGTKLEIKR
notes: murine mAb
B6: SC16.147 (antibody, V domains shown)
VH: QIQLVQSGPELTKPGETVKISCKASGYTFTDYSLHWVKQALGKGLKWMGWINTETGEPAYADDFKGRFAFSLETSASTAYLQINDLKNEDTTTYFCGIYDGYAMDYWGQGTSVTVSS
VL: DIQMTQTASSLSASLGDRVTISCRASQDINNYLNWYQQKPDGTVKLLIYYTSRLHSGVPSRFSGSGSGTDYSLTISILEQEDIATYFCQQGDTLPWTFGGGTKLEIK
notes: murine mAb
B7: SC16.148 (antibody, V domains shown)
VH: QIQLVQSGPELKKPGETVKISCKASGYTLTNYGMNWVKQAPGKGLKWMGWINTYTGEPTYADDFKGRFAFSLETSARIVYLQINNLKNEDTATYFCAKYEAHEGFVYWGQGTLVTVSA
VL: QIVLTQSPAIMSASPGEKVTMTCSASSSVSYMYWYQQKPGSSPRLLIYDTSNLASGVPVRFSGSGSGTSYSLTISRMEAEDTATYYCQEWSNNPLTFGDGTKLELK
notes: murine mAb
B8: SC16.141 (antibody, V domains shown)
VH: QVQLKQSGPGLVAPSQSLFITCTVSGFSLTSYEINWVRQPPGKGLEWLGVIWTGGSTNYNSALISRLSISKDNSKSLVFLKMNSLQTDDTAIYYCVRGVYAMDYWGQGTSVTVSS
VL: DIKMTQSPSSMYASLGERVTITCKASQDINSYLSWFQQKPGKSPKTLIYRANRLVDGVPSRFSGSGSGQDYSLTISSLEYEDMGIYYCLQYDEFPFTFGSGTKLEIK
notes: murine mAb
B9: hSC16.13 (antibody, V domains shown)
VH: QITLKESGPTLVKPTQTLTLTCTFSGFSLSTSGMGVGWIRQPPGKALEWLAHIWWDDVKRYSPSLKSRLTITKDTSKNQVVLTMTNMDPVDTATYYCARIVSFDNDVVSAMDYWGQGTLVTVSS
VL: DIQMTQSPSSLSASVGDRVTITCSASSSVSYMYWYQQKPGKAPKLLIYLTSNLASGVPSRFSGSGSGTDFTLTISSLQPEDFATYYCQQWRSNPFTFGQGTKLEIKR
notes: humanized (CDR grafted)
B10: hSC16.34 (antibody, V domains shown)
VH: QVQLVQSGAEVKKPGASVKVSCKASGYTFTNYGMNWVRQAPGQRLEWMGWINTYTGDPTYADDFKGRVTITRDTSASTAYMELSSLRSEDTAVYYCARIGGNSPSDYWGQGTTVTVSS
VL: DIQMTQSPSSLSASVGDRVTITCKASQSVSNDVAWYQQKPGKVPKLLIYYASNRYSGVPSRFSGSGSGTDFTLTISSLQPEDVATYFCQQDYSSPWTFGGGTKVEIK
notes: humanized (CDR grafted)
B11: hSC16.56 (antibody, V domains shown)
VH: QVQLVQSGAEVKKPGASVKVSCKASGYTFTNYGMNWVRQAPGQGLEWMGWINTYTGEPTYADDFKGRVTMTTDTSTSTAYMELRSLRSDDTAVYYCARIGDSSPSDYWGQGTLVTVSS
VL: EIVMTQSPATLSVSPGERATLSCKASQSVSNDVVWYQQKPGQAPRLLIYYASNRYTGIPARFSGSGSGTEFTLTISSLQSEDFAVYYCQQDYTSPWTFGQGTKLEIKR
notes: humanized (CDR grafted)
B12: hSC16.15 (antibody, V domains shown)
VH: QVQLVQSGAEVKKPGASVKVSCKASGYTFTRYWIHWIRQAPGQGLEWMGYINPTTVYTEFNQNFKDRVTMTRDTSTSTVYMELSSLRSEDTAVYYCARGGSNFFDYWGQGTTVTVSS
VL: AIQLTQSPSSLSASVGDRVTITCRASENIYYNLAWYQQKPGKAPKLLIYTANSLEDGVPSRFSGSGSGTDFTLTISSLQPEDFATYFCKQAYDVPPTFGGGTKLEIK
notes: humanized (CDR grafted); also called humanized SC16.15
B13: SC16.15 (antibody, V domains shown)
VH: QVQLQQSGAELAKPGASVKMSCKASGYTFTRYWIHWIKQRPGQGLEWIGYINPTTVYTEFNQNFKDKATLTADKSSTTASMQLSSLTSEDSAVYYCARGGSNFFDYWGQGTTLTVSS
VL: DIQMTQSPASLAASVGETVAITCRASENIYYNLAWYQQKQGKSPQLLIYTANSLEDGVPSRFSGSGSGTQYSLKINSMQPEDSATYFCKQAYDVPPTFGGGTKLEIK
notes: murine mAb

The first experiment deals with T1, human DLL3 antigen. The experiment in a line: ELISA or flow cytometry screen. A general note: ELISA stands for enzyme-linked immunosorbent assay.
On to B1, for which the binding result is listed as “binds”. Consider B2, for which the binding result is recorded as “binds”.

As for B3, the binding result is listed as “binds”. Regarding B4, the binding result is given as “binds”. On to B5, for which the binding result was “binds”.

In the case of B6, the binding result is “binds”. For B7, the binding result is given as “binds”. With B8, the binding result was “binds”.

The next experiment addresses T1, human DLL3 antigen. The experiment in a line: SPR, Biacore 2000, human DLL3 antigen. For orientation: Surface plasmon resonance follows binding to a sensor surface in real time, without labels.
Experimental: Various methods were used to analyze the binding and immunochemical characteristics of selected DLL3 modulators generated as set forth above. […] Affinities and kinetic constants kₒₙ and koff of the selected modulators were measured using bio-layer interferometry analysis on a ForteBio RED (ForteBio, Inc.) or surface plasmon resonance using a Biacore 2000 each according to the manufacturer's instructions.
(§1) In this respect the humanized constructs (CDR grafted) were compared with “traditional” chimeric antibodies comprising the murine parent (or donor) heavy and light chain variable domains and a human constant region substantially equivalent to that used in the humanized constructs. With these constructs surface plasmon resonance (SPR) was conducted using a Biacore 2000 (GE Healthcare) to identify any subtle changes in rate constants brought about by the humanization process.
As for B9, the binding result is recorded as “binds”.

Consider B10, for which the binding result is listed as “binds”. Turning to B11, the binding result is recorded as “binds”. Still for that read-out and setting: the value for B12 was “binds”.

A further experiment concerns the target T1, human DLL3 antigen. The experiment in a line: SPR, Biacore 2000, 25 and 12.5 nM human DLL3 antigen, 1:1 Langmuir model.
Experimental: as §1
As for B13, the Kd is ~0.2 nM.
